Source: patent publication US7396682B2, “Method for cell adhesion and wound healing” (Regen Biotech, Inc., priority 2000, dated 2008)
Entries after “also recorded” stand apart in the source; their conditions may differ.

Experiments:
[1] = tested on: Human corneal epithelial (HCE) cells; assay: HCE cell adhesion and spreading assay on protein-coated plates; type: cell-based; conditions: HCE cells on coated recombinant protein
Protocol: Human corneal epithelial (HCE) cells used in this assay were cultured in DMEM ([…], Gibco BRL) supplemented with 15% fetal bovine serum, Gentamicin (40 μg/ml), insulin (5 μg/ml), cholera toxin (0.1 μg/ml) and human epidermal growth factor (hEGF) at 37° C. in 5% CO2.
The cell adhesion assay was performed as follows. First, the recombinant βig-h3 proteins or other extracellular matrix proteins were let to adhere to the bottoms of 96-well microculture plates (Falcon) by incubation at 37° C. for 1 hour and blocked with PBS containing 0.2% BSA. The coated extracellular matrix proteins were human plasma vitronectin (Promega), purified human plasma fibronectin (pFN), chicken collagen types I and II (Chemicon International Inc.), bovine collagen types IV and VI (Chemicon), mouse laminin (Chemicon), and bovine serum albumin (BSA) (Sigma). Cells were trypsinized and suspended in the culture media at a density of 2×10^5 cells/ml. 0.1 ml of the cell suspension was added to each well of the plates coated with the recombinant proteins.
Following incubation at 37° C. for 1 hour, unattached cells were removed by rinsing with PBS. Attached cells were incubated for 1 hour at 37° C. in 50 mM citrate buffer, pH 5.0, containing 3.75 mM p-nitrophenol-N-acetyl 1-β-D-glycosaminide as a hexosaminidase substrate and 0.25% Triton X-100, followed by the addition of 50 mM glycine buffer, pH 10.4, containing 5 mM EDTA to block the enzyme activity. A measurement was made of absorbance at 405 nm in a Multiskan MCC/340 microplate reader.
To determine cell area as an index for cell adhesion activity, 4×10^4 cells were applied to substrates in 48-well culture plates. The attached cells were fixed weith 8% glutaraldehyde (Sigma) and then stained with 0.25% Crystal Violet (Sigma) in 20% methanol. Measurement of cell areas was performed by Image-Pro plus software (Media Cybernetics). Experiments were repeated in triplicate with 200 or 300 measurements per site for each experiment. Data is reported as the mean area at specific time points±standard error of mean.

[2] = Expression form and non-denaturing gel electrophoresis of recombinant proteins; type: physicochemical; conditions: electrophoresis using non-denaturing gel
Protocol: The recombinant proteins containing at least one 4th domain, such as βig3-D-IV, 2X, 3X and 4X were prepared as follows. A DNA fragment encoding to amino acid 498-637 corresponding the 4th domain was obtained by PCR and the PCR products were blunt-ended by Klenow enzyme. This blunt-ended cDNA fragment was inserted to the EcoRV site of the pβig-h3 D-IV, which contained the 4th domain of βig-h3, and the resulting expression vector was named pβI-h3 D-IV 2X. The insert of the pβig-h3 D-IV 2X was excised by digestion with EcoRV and XhoI and blunt-ended by treatment with Klenow, followed by inserting the blunt-ended fragment into EcoRV sites of pβig-h3 D-IV and pβig-h3 D-IV 2X. The resulting expression vectors were named pβig-h3 D-IV 3X and pβig-h3 D-IV 4X. Expression of all recombinant proteins was induced for 3 hours in the presence of 1 mM IPTG and isolated by use of Ni-NTA resin (Qiagen).

[3] = tested on: dermal whole layer wounds on the backs of rats; assay: Wound healing with ointment bases on dermal whole layer wounds (2 cm) of rats; type: in vivo, rat; set-up: key to Formation grade of collagenous fibers at wound: 0: negative; 1+: insignificant; 2+: scatteringly formed; 3+: very dense; key to Re-ephithelialization of Wound (grade): 0: zero was set for the formation of no epithelial layers; 1+ for initiation of epithelialization; 2+ for incomplete epithelial layer structure; 3+ for complete epithelial layer structure; conditions: for wound area: ointment 100 μg/ml, 1 g per day, mean
Protocol: To compare wound healing activity between the recombinant βig-h3 protein His-β-b, which contains all of the four fas-1 domains, like native βig-h3 protein, and the recombinant βig-h3 protein βigh3-D-IV, which contains the 4th domain alone, ointment bases comprising the recombinant proteins were tested as follows.
Four dermal whole layer wounds, each 2 cm in diameter, were made on the backs of rats and divided into test groups 1-A, 1-B, 1-C and 1-D according to the ointment applied thereto.
1-A: coated at a dose of 1 gm per day with an ointment base combined with no materials.
1-B: coated at a dose of 1 gm per day with an ointment in which fibronectin was combined at a concentration of 100 μg/ml with a base.
1-C: coated at a dose of 1 g per day with an ointment in which Hisβ-b protein was combined at a concentration of 100 μg/ml with a base.
1-D: coated at a dose of 1 g per day with an ointment in which βigh3-D-IV protein was combined at a concentration of 100 μg/ml with a base.
The backs of etherized rats were shaved, followed by sterilizing the shaved region with betadin solution. In test group 1, the back of each rat was cut by use of a No. 15 surgical blade to form four circular wounds with a diameter of 2 cm penetrating the whole dermal layers. Ointments for test groups 1-A, 1-B, 1-C and 1-D were applied at an amount of about 1 g to the wounds which were then covered with a synthetic dressing (Tegaderm® 3M) and lightly bandaged. Application of ointments was performed once every day.
With a base of an aqueous material (SamA base), each of the ointments contained, per 1 g, spermaceti 38 mg, stearyl alcohol 116 mg, polyethylglycol 38 mg, conc. glycerin 192 mg, ethanol 23 mg, […], ethyl paraoxybenzoate 0.87 mg, butyl paraoxybenzoate 0.12 mg, and purified water.
First, morphologies of wounds were observed. The same scale was positioned near each wound and pictures were taken at the same distance from each wound. Pictures were scanned in a computer and used to measure areas of the wounds with the aid of NIH image analysis system (Bio-Optics). To take the pictures, the muscle was completely relaxed by etherizing the rats. Measurements were performed once every other day until the 22nd day. For comparing test groups, the measured values were analyzed according to ANOVA test and Scheffer's test.
Histological analysis was conducted under an optical microscope. Biopsies of wound sites were taken at days 3, 7, 10, 14 and 20, and fixed in 10% formalin and solidified with paraffin. 6 μm slices of the samples were dyed with hematoxylin-eosin (H&E) and Masson's trichrome before observation under a microscope. Wound healing effects according to time of each test material were evaluated through re-epithelialization and formation of collagenous fibers. In the case of re-epithelialization, epithelial formation was semi-quantified in such a way that zero was set for the formation of no epithelial layers, 1+ for initiation of epithelialization, 2+ for incomplete epithelial layer structure, and 3+ for complete epithelial layer structure. Regarding comparison among test groups and differences according to time within each group, measured values were statistically analyzed using ANOVA test and Scheffe's test. As for collagenous fiber formation, it was graded as 1+ for insignificant formation of collagenous fibers as observed with trichrome dye, 2+ for scatteringly spaced collagenous fibers, and 3+ for dense collagenous fibers.

B1: βig-h3 D-IV: recombinant polypeptide, 4th fas-1 domain of βig-h3, amino acids 498-637 (SEQ ID NO:26) (protein)
chain: LTPPMGTVMDVLKGDNRFSMLVAAIQSAGLTETLNREGVYTVFAPTNEAFRALPPRERSRLLGDAKELANILKYHIGDEILVSGGIGALVRLKSLQGDKLEVSLKNNVVSVNKEPVAEPDIMATNGVVHVITNVLQPPAN
modifications: left off: small tags and cut ends
With B1 the “HCE cell adhesion activity” value [1] was “equally active compared to the wild type βig-h3; also recorded: high cell attachment activity”, the polymer formation [2] was “did not form polymers” and the wound area ([3]; Day 0) was 3.15. The wound area ([3]; Day 2) was 2.62 cm², the “Formation grade of collagenous fibers at wound” value (shortened to “Formation grade”) ([3]; Day 3) was 1+ and the “Re-ephithelialization of Wound (grade)” value ([3]; Day 3) was 0. For the same molecule, the wound area ([3]; Day 4) was 2.37, the wound area ([3]; Day 6) was 1.98 and the “Re-ephithelialization of Wound (grade)” value ([3]; Day 7) was 0. For the same molecule, the “Formation grade” value ([3]; Day 7, listed as 1-D) was “+1”, the “Formation grade” value ([3]; Day 7, listed as βigD-IV) was 1+ and the wound area ([3]; Day 8) was 1.51 cm². For the same molecule, the “Formation grade” value ([3]; Day 10) was 2+, the “Re-ephithelialization of Wound (grade)” value ([3]; Day 10) was 1+ and the wound area ([3]; Day 10) was 0.98 cm². The wound area ([3]; Day 12) was 0.44, the “Formation grade” value ([3]; Day 14) was 3+ and the “Re-ephithelialization of Wound (grade)” value ([3]; Day 14) was 2+. It also gave a wound area ([3]; Day 14) of 0.22, a wound area ([3]; Day 16) of 0.20 and a wound area ([3]; Day 18) of 0.18. For the same molecule, the “Formation grade” value ([3]; Day 20) was 3+, the “Re-ephithelialization of Wound (grade)” value ([3]; Day 20) was 3+ and the wound area ([3]; Day 20) was 0.13. The wound area ([3]; Day 22) was 0.06 and the completion of re-epithelialization ([3]; optical microscope) was 20 days.
